Laboratory results from PMC4063175.

Target: Src13-GCN4-eGFP/mCherry
Test: PIE-FCCS

fc (fraction correlated), mean: 0.25 | fc (fraction correlated), median: 0.23
Substance: Src13-GCN4-eGFP/mCherry
